Measurements: FireProtDB (doi:10.1006/jmbi.2001.5050)

B1: Cold shock protein CspB, P41016 (parent)
chain: MQRGKVKWFNNEKGYGFIEVEGGSDVFVHFTAIQGEGFKTLEEGQEVSFEIVQGNRGPQAANVVKL

Variants of: B1
Conditions: Bacillus caldolyticus, pH 7, CD, sodium cacodylate-HCl 100 mM, reversible: yes, structure 1C9O, whole UniProt chain shown

Variant	ddG of mutation (higher = less stable) (70 °C, Thermal, NaCl 2 M) [kcal/mol]	unfolding free energy (70 °C, Thermal, NaCl 2 M) [kcal/mol]	ddG of mutation (higher = less stable) (70 °C, Thermal) [kcal/mol]	unfolding free energy (70 °C, Thermal) [kcal/mol]	Tm (Thermal) [°C]	change of melting temperature, mutant - wild type (higher = more stable) (Thermal) [°C]	unfolding enthalpy (van 't Hoff) (Thermal) [kcal/mol]	ddG of mutation (higher = less stable) (25 °C, GdnHCl) [kcal/mol]	denaturant m value (25 °C, GdnHCl) [kcal/mol/M]	denaturant midpoint (higher = more stable) (25 °C, GdnHCl) [M]	unfolding free energy (25 °C, GdnHCl) [kcal/mol]
T31S	-0.19	2.39	-0.17	1.24	77.8	0.9	59.8				
V64T	0.19	2.01	0.26	0.81	75.1	-1.8	58.3	0.31	1.79	2.5	0.88
E46A L66E	1.39	0.81			68	-8.9	51.9	0.84	1.84	2.2	0.36
E46A L66A	0.22	1.98	0.29	0.79	75	-1.9	56.9				
S24D	-0.19	2.39	-0.22	1.29	77.8	0.9	61.7	-0.1	1.65	2.79	1.29
E46A	0.12	2.08	0.22	0.86	75.4	-1.5	57.6	-0.1		2.77	1.29
R3E E46A	0.96	1.24			64.6	-12.3	52.8	0.43	1.63	2.47	0.76
R3E L66E					44.6	-32.3	36.8				
Y15F	-0.07	2.27	0.05	1.03	76.7	-0.2	56.6	0.1	1.6	2.69	1.1
R3E E46A L66E					50.3	-26.6	40.4				
R3E E21A	1.1	1.1			60	-16.9	49.2				
Q2L	-0.29	2.49	-0.55	1.63	80.9	4	57.8	-0.41	1.7	2.95	1.6
Q53E	0	2.2	0.1	0.98	76.1	-0.8	58.8	-0.02	1.82	2.68	1.22
E21A	0.29	1.91	0.29	0.79	75	-1.9	57.8				
R3K	0.14	2.06	0.19	0.88	76.1	-0.8	53.5				
R3A	1.05	1.15			64.9	-12	51.4				
R3E	1	1.2						0.84	1.6	2.23	0.36
R3L	0.22	1.98	0.93	0.14	70.9	-6	55.7				
G23Q	0.31	1.89	0.29	0.79	74.7	-2.2	59.5	0	1.89	2.62	1.2
N11S	-0.22	2.41	-0.33	1.41	79.2	2.3	58.8	0	1.74	2.69	1.2
G23Q S24D	0.1	2.1	0.12	0.96	75.9	-1	59.5	-0.07	1.67	2.75	1.27
L66A	0.07	2.13									
L66E	1.27	0.93			68.9	-8	50.2	0.84	1.74	2.21	0.36
